What follows are substances tested on peptide library, one residue held at a place counted from the S/T acceptor (assay: relative phosphorylation of the sub-library (ratio to the mean residue at this position); human; higher = residue favoured). Conditions: A fixed; at +1.
How it was run: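 Purified recombinant kinases (human or orthologue constructs) were incubated in 384-well plates with biotinylated degenerate peptide sub-libraries, each fixing one residue at one position around a central Ser/Thr. Peptides were at 50 μM, with 50 μM ATP spiked with γ-32P-ATP, for 90 min under kinase-specific conditions. Spots on streptavidin membranes were phosphorimaged and quantified by densitometry. Relative sub-library phosphorylation is a ratio to the mean residue at that position.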
Sequence of RIPK1, construct: aa1-327 (Q13546 1-327, looked up): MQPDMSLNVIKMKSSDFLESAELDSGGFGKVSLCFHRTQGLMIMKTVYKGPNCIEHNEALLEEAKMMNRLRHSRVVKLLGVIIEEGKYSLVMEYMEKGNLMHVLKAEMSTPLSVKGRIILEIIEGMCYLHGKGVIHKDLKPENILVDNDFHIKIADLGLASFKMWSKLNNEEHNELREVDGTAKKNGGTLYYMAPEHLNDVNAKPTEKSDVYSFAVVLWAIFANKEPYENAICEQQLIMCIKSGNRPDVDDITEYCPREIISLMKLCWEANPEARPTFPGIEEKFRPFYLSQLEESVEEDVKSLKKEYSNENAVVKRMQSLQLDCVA
Sequence of AURKA, construct: Full length (O14965 whole entry, looked up): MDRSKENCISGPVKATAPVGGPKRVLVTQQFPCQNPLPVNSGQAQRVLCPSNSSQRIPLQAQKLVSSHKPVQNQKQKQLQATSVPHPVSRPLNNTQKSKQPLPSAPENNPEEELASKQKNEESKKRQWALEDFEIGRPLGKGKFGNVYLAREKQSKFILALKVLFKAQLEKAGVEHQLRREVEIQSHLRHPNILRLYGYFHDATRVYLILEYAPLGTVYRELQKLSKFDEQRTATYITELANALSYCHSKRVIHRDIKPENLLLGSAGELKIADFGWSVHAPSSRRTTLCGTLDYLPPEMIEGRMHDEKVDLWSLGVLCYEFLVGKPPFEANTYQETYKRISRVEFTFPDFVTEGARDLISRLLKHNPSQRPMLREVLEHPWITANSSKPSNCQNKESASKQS
“RIPK1, construct: aa1-327 (from UniProt Q13546)” was tested, and the relative phosphorylation was 0.709. “AURKA, construct: Full length (from UniProt O14965)” gave a relative phosphorylation of 0.474. “PRKACB, construct: Full length (from UniProt P22694)” showed a relative phosphorylation of 0.818.

Same assay, conditions: A fixed; at +2
For “RIPK1, construct: aa1-327 (from UniProt Q13546)”, the relative phosphorylation was 0.619. For “AURKA, construct: Full length (from UniProt O14965)”, the relative phosphorylation was 1. “PRKACB, construct: Full length (from UniProt P22694)” gave a relative phosphorylation of 1.26.

Same assay, conditions: A fixed; at +3
In the case of “RIPK1, construct: aa1-327 (from UniProt Q13546)”, the relative phosphorylation is reported as 0.572. In the case of “AURKA, construct: Full length (from UniProt O14965)”, the relative phosphorylation is reported as 0.906. “PRKACB, construct: Full length (from UniProt P22694)” gave a relative phosphorylation of 0.948.

Same assay, conditions: A fixed; at +4
For “RIPK1, construct: aa1-327 (from UniProt Q13546)”, the relative phosphorylation was 0.819. “AURKA, construct: Full length (from UniProt O14965)” was tested, and the relative phosphorylation was 0.863. With “PRKACB, construct: Full length (from UniProt P22694)” the relative phosphorylation was 0.9.

Same assay, conditions: A fixed; at -1
For “RIPK1, construct: aa1-327 (from UniProt Q13546)”, the relative phosphorylation was 0.574. With “AURKA, construct: Full length (from UniProt O14965)” the relative phosphorylation was 0.683. Work on “PRKACB, construct: Full length (from UniProt P22694)” yielded a relative phosphorylation of 0.875.

Same assay, conditions: A fixed; at -2
For “RIPK1, construct: aa1-327 (from UniProt Q13546)”, the relative phosphorylation was 1.01. Substance “AURKA, construct: Full length (from UniProt O14965)” has a relative phosphorylation of 0.209. “PRKACB, construct: Full length (from UniProt P22694)” gave a relative phosphorylation of 0.426.

Same assay, conditions: A fixed; at -3
“RIPK1, construct: aa1-327 (from UniProt Q13546)” showed a relative phosphorylation of 0.92. “AURKA, construct: Full length (from UniProt O14965)” was tested, and the relative phosphorylation was 0.665. “PRKACB, construct: Full length (from UniProt P22694)” was tested, and the relative phosphorylation was 0.62.

Same assay, conditions: A fixed; at -4
“RIPK1, construct: aa1-327 (from UniProt Q13546)” showed a relative phosphorylation of 1.03. “AURKA, construct: Full length (from UniProt O14965)” showed a relative phosphorylation of 1.08. Substance “PRKACB, construct: Full length (from UniProt P22694)” has a relative phosphorylation of 1.15.

Same assay, conditions: A fixed; at -5
Substance “RIPK1, construct: aa1-327 (from UniProt Q13546)” has a relative phosphorylation of 0.84. For “AURKA, construct: Full length (from UniProt O14965)”, the relative phosphorylation was 1.08. In the case of “PRKACB, construct: Full length (from UniProt P22694)”, the relative phosphorylation is reported as 1.18.

Same assay, conditions: D fixed; at +1
Work on “RIPK1, construct: aa1-327 (from UniProt Q13546)” yielded a relative phosphorylation of 0.248. “AURKA, construct: Full length (from UniProt O14965)” showed a relative phosphorylation of 1.14. Work on “PRKACB, construct: Full length (from UniProt P22694)” yielded a relative phosphorylation of 0.607.

Same assay, conditions: D fixed; at +2
Substance “RIPK1, construct: aa1-327 (from UniProt Q13546)” has a relative phosphorylation of 0.612. “AURKA, construct: Full length (from UniProt O14965)” showed a relative phosphorylation of 0.993. For “PRKACB, construct: Full length (from UniProt P22694)”, the relative phosphorylation was 1.56.

Same assay, conditions: D fixed; at +3
“RIPK1, construct: aa1-327 (from UniProt Q13546)” showed a relative phosphorylation of 0.489. With “AURKA, construct: Full length (from UniProt O14965)” the relative phosphorylation was 0.822. “PRKACB, construct: Full length (from UniProt P22694)” showed a relative phosphorylation of 1.15.

Same assay, conditions: D fixed; at +4
For “RIPK1, construct: aa1-327 (from UniProt Q13546)”, the relative phosphorylation was 0.846. With “AURKA, construct: Full length (from UniProt O14965)” the relative phosphorylation was 0.906. Work on “PRKACB, construct: Full length (from UniProt P22694)” yielded a relative phosphorylation of 1.36.

Same assay, conditions: D fixed; at -1
“RIPK1, construct: aa1-327 (from UniProt Q13546)” showed a relative phosphorylation of 0.592. “AURKA, construct: Full length (from UniProt O14965)” gave a relative phosphorylation of 1.39. With “PRKACB, construct: Full length (from UniProt P22694)” the relative phosphorylation was 0.667.

Same assay, conditions: D fixed; at -2
With “RIPK1, construct: aa1-327 (from UniProt Q13546)” the relative phosphorylation was 0.374. “AURKA, construct: Full length (from UniProt O14965)” gave a relative phosphorylation of 0.274. “PRKACB, construct: Full length (from UniProt P22694)” gave a relative phosphorylation of 0.196.

Same assay, conditions: D fixed; at -3
In the case of “RIPK1, construct: aa1-327 (from UniProt Q13546)”, the relative phosphorylation is reported as 0.536. “AURKA, construct: Full length (from UniProt O14965)” was tested, and the relative phosphorylation was 0.606. “PRKACB, construct: Full length (from UniProt P22694)” showed a relative phosphorylation of 0.231.

Same assay, conditions: D fixed; at -4
Substance “RIPK1, construct: aa1-327 (from UniProt Q13546)” has a relative phosphorylation of 0.614. In the case of “AURKA, construct: Full length (from UniProt O14965)”, the relative phosphorylation is reported as 1.4. For “PRKACB, construct: Full length (from UniProt P22694)”, the relative phosphorylation was 0.657.

Same assay, conditions: D fixed; at -5
Substance “RIPK1, construct: aa1-327 (from UniProt Q13546)” has a relative phosphorylation of 0.642. In the case of “AURKA, construct: Full length (from UniProt O14965)”, the relative phosphorylation is reported as 1. Work on “PRKACB, construct: Full length (from UniProt P22694)” yielded a relative phosphorylation of 0.772.

Same assay, conditions: E fixed; at +1
“RIPK1, construct: aa1-327 (from UniProt Q13546)” was tested, and the relative phosphorylation was 0.331. In the case of “AURKA, construct: Full length (from UniProt O14965)”, the relative phosphorylation is reported as 0.796. In the case of “PRKACB, construct: Full length (from UniProt P22694)”, the relative phosphorylation is reported as 0.649.

Same assay, conditions: E fixed; at +2
Substance “RIPK1, construct: aa1-327 (from UniProt Q13546)” has a relative phosphorylation of 0.927. “AURKA, construct: Full length (from UniProt O14965)” gave a relative phosphorylation of 1.03. Work on “PRKACB, construct: Full length (from UniProt P22694)” yielded a relative phosphorylation of 0.788.

Same assay, conditions: E fixed; at +3
In the case of “RIPK1, construct: aa1-327 (from UniProt Q13546)”, the relative phosphorylation is reported as 0.398. For “AURKA, construct: Full length (from UniProt O14965)”, the relative phosphorylation was 0.851. Work on “PRKACB, construct: Full length (from UniProt P22694)” yielded a relative phosphorylation of 1.04.

Same assay, conditions: E fixed; at +4
“RIPK1, construct: aa1-327 (from UniProt Q13546)” was tested, and the relative phosphorylation was 0.81.

From the supplement of paper PMC9876800
